Experimental data from patent publication US12528864 (GlaxoSmithKline, dated 2026).

Columns and labels:
[1] = target: T1, cynomolgus monkey CD96v2 expressed on cells (CHO cells; transiently transfected HEK cells) (cynomolgus monkey, UniProt A0A2K5TWV6 22-569); experiment: flow cytometry on transiently transfected HEK cells (Cyno CD96v2)
T1 construct: the cell is named under assay; also called CHO-cyCD96; Cyno CD96v2
T1 sequence: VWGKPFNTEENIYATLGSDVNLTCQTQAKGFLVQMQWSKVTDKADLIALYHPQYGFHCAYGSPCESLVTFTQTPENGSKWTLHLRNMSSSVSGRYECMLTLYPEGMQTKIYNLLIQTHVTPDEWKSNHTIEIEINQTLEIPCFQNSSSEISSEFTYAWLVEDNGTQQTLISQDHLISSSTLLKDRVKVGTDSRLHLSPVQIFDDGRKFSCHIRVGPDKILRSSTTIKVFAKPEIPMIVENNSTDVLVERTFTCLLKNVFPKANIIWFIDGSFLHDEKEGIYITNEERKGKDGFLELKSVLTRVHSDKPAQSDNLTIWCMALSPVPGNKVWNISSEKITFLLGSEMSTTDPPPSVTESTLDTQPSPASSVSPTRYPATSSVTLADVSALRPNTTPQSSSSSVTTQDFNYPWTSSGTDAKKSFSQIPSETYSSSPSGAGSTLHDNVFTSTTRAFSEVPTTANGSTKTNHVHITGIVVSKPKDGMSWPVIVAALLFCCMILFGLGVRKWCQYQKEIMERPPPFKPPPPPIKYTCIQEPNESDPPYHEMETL

[2] = target: T2, human CD96v2 expressed on cells (CHO cells; transiently transfected HEK cells) (human, UniProt P40200-2 22-569); experiment: flow cytometry on CHO cells expressing human CD96v2
T2 construct: whole, on cells; the cell is named under assay; also called CHO-huCD96; hCD96v2
T2 sequence (looked up): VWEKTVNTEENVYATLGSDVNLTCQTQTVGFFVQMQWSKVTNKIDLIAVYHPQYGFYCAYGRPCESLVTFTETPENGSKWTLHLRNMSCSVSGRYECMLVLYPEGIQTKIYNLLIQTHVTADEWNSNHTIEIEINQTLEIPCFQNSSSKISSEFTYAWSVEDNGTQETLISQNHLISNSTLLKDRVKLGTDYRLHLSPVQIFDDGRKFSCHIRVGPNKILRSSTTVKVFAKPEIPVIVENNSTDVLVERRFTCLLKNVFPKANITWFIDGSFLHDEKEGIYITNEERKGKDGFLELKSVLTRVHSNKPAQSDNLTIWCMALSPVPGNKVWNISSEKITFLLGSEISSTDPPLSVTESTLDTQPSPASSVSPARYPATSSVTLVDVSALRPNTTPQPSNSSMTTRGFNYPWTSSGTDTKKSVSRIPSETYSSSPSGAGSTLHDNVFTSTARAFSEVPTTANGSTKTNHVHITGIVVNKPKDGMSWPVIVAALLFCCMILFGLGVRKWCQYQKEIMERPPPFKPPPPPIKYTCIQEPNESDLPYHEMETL

recombinant human CD96v2 = target: T3, recombinant human CD96v2 (human, UniProt P40200-2 22-503, limits assumed, biotinylated (site not stated)); experiment: MSD solution equilibrium titration (MSD-SET), 25 C
T3 construct: Soluble recombinant protein used in MSD-SET; also called Biotinylated human CD96 protein
T3 sequence (looked up): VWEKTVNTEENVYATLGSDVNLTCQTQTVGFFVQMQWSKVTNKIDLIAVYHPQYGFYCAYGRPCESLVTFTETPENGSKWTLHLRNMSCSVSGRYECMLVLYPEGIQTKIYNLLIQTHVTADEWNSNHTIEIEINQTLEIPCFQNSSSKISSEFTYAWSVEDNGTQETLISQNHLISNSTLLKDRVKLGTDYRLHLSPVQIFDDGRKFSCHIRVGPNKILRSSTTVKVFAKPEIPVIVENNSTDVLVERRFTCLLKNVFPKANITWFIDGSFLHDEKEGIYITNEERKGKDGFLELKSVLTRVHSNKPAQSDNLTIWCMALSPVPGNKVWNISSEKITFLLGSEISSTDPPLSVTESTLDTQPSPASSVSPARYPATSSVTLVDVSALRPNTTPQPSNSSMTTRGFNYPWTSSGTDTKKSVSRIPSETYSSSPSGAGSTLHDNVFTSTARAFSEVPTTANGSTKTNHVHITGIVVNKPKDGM

[3] = target: T4, recombinant cynomolgus monkey CD96v2 (cynomolgus monkey, UniProt A0A2K5TWV6 22-487, biotinylated (site not stated)); experiment: MSD solution equilibrium titration (MSD-SET), 25 C
T4 construct: Soluble recombinant protein used in MSD-SET; also called cynomolgus monkey biotinylated CD96 protein
T4 sequence: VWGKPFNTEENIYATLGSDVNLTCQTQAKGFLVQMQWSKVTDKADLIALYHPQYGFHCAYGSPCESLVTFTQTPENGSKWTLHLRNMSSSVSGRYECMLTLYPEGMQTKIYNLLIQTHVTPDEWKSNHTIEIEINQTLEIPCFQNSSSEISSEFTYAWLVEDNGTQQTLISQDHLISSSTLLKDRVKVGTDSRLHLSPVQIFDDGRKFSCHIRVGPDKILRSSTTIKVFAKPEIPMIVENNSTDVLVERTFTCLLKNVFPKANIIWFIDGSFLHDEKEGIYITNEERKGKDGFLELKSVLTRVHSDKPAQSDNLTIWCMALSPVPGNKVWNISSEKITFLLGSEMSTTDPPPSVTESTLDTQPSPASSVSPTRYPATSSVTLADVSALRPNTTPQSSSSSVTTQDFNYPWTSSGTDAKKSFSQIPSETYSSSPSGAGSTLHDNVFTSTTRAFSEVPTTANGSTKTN

[4] = target: T5, recombinant murine CD96v2 (mouse, UniProt Q3U0X8 22-536, limits assumed); experiment: MSD solution equilibrium titration (MSD-SET), 25 C
T5 construct: Soluble recombinant protein used in MSD-SET; also called mouse CD96
T5 sequence (looked up): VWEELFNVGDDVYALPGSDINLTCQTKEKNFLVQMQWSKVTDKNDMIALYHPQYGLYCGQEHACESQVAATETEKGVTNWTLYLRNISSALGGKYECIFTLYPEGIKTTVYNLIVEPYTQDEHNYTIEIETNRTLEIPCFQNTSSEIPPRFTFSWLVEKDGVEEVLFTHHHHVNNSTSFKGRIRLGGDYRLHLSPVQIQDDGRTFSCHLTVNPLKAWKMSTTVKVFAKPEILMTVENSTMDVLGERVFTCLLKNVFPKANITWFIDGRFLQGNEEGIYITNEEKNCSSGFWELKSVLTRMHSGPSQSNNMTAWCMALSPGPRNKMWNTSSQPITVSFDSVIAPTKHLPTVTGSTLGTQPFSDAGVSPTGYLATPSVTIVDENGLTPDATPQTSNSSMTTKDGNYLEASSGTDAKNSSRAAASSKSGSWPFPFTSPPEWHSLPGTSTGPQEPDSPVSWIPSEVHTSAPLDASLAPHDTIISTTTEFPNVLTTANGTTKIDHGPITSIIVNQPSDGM

EC50 (read off the curve) [1]: ~6 nM
EC50 [2]: 0.05 nM
Kd (recombinant human CD96v2): 0.02 nM
Kd [3]: 0.278 nM
Kd [4]: 0.479 nM
B1: 42Y073-86F08-66 (antibody)
heavy: not shown
light: DIQLTQSPSSLSASVGDRVTITCRASQSISSYLNWYQQKPGKAPKLLIYAASSLQSGVPSRFSGSGSGTDFTLTISSLQPEDFATYYCQQVLHTITFGGGTKVEIKRTVAAPSVFIFPPSDEQLKSGTASVVCLLNNFYPREAKVQWKVDNALQSGNSQESVTEQDSKDSTYSLSSTLTLSKADYEKHKVYACEVTHQGLSSPVTKSFNRGEC
notes: also called GSK 6097608; GSK6097608
